# Data: the supplement of paper PMC10126150
# ± gives the standard deviation of the averaged measurements.
# System: ATP
# Test: switch fluorescence ratio, 500 uM ATP over buffer (Cy3 cluster intensity, sum of 5 cycles each) (fold (ratio)); higher = stronger signal-on switching upon ATP binding; sequences stand for … in TCGTCGGCAGCGTCAGATGTGTATAAGAGACAGTTTTTTTTTTTTTTTTTTTTTTTTT…TC
# Settings: aptamer strand: ATP DNA aptamer (quencher-CACCTGGGGGAGTATTGCGGAGGAAGG + anchor), 100 nM annealed; ATP concentration: 500 uM
# How it was run: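 Switching-strand clusters labelled with Cy3 on a modified Illumina MiSeq flow-cell were annealed to 100 nM quencher-labelled ATP aptamer, imaged in selection buffer, and re-imaged after 15 min with 500 uM ATP at 22 °C. This was done over five cycles with NaOH stripping and re-annealing in between. The fluorescence ratio is summed target-cycle over summed buffer-cycle Cy3 intensity per cluster, averaged per switch-domain sequence, excluding clusters outside 100-1000 RFU.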
# 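Also: ATP exposure 15 min at 22 °C before imaging.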
row,Sequence,switch fluorescence ratio
1,AGAGAGACGT,0.995 ± 0.029
2,AGAGAGGGAA,1 ± 0.025
3,AGAGAGGTTA,1.02 ± 0.014
4,AGAGAGTTTT,0.984 ± 0.021
5,AGAGATATGA,1.0142 ± 0.00072
6,AGAGATGCTT,0.99 ± 0.032
7,AGAGCAGGTT,1.02 ± 0.014
8,AGAGCATTGA,1.013 ± 0.007
9,AGAGCGCGCC,1.02 ± 0.05
10,AGAGCTGTTG,1.01 ± 0.019
11,AGAGGAAAAC,1.08 ± 0.023
12,AGAGGACTTT,1.001 ± 0.0029
13,AGAGGAGCGG,1.02 ± 0.013
14,AGAGGAGTTG,1.03 ± 0.046
15,AGAGGATGGG,1 ± 0.034
16,AGAGGCCTGT,1.01 ± 0.0086
17,AGAGGGAAGA,1.01 ± 0.037
18,AGAGGGCTGT,1.01 ± 0.15
19,AGAGGGGCAG,0.961 ± 0.016
20,AGAGGGGCGT,0.999 ± 0.033
21,AGAGGGGGAA,0.978 ± 0.014
22,AGAGGGGGAG,0.979 ± 0.027
23,AGAGGGTCCA,0.962 ± 0.021
24,AGAGGGTTAA,0.988 ± 0.031
25,AGAGGTAACT,0.993 ± 0.014

row,Sequence,switch fluorescence ratio
1,AGAGGTAAGC,1.02 ± 0.019
2,AGAGGTCTAC,0.982 ± 0.031
3,AGAGGTGCAT,1.02 ± 0.017
4,AGAGTAATCG,0.983 ± 0.07
5,AGAGTACGTA,1.041 ± 0.0065
6,AGAGTAGAGT,0.9995 ± 0.0088
7,AGAGTAGGGG,0.979 ± 0.029
8,AGAGTATGG,0.965 ± 0.035
9,AGAGTATTTG,0.994 ± 0.014
10,AGAGTCGTTT,0.9853 ± 0.0046
11,AGAGTGAGAG,0.9931 ± 0.0056
12,AGAGTGAGGG,0.977 ± 0.0012
13,AGAGTGAGTT,0.9533 ± 0.0045
14,AGAGTGATCT,0.98437 ± 0.00057
15,AGAGTGATGT,1 ± 0.041
16,AGAGTGGACA,1 ± 0.042
17,AGAGTGGAGA,1.009 ± 0.0004
18,AGAGTGTAGG,1.08 ± 0.034
19,AGAGTGTGGC,1.07 ± 0.039
20,AGAGTTAAAG,0.9917 ± 0.0072
21,AGAGTTAAGT,0.989 ± 0.032
22,AGAGTTACCG,1.04 ± 0.017
23,AGAGTTGGGT,0.984 ± 0.02
24,AGAGTTTGT,0.987 ± 0.014
25,AGATAATTGG,1.007 ± 0.0061

row,Sequence,switch fluorescence ratio
1,AGATACTTTC,1.03 ± 0.024
2,AGATAGGCGT,0.9959 ± 0.0056
3,AGATAGGGCA,0.994 ± 0.032
4,AGATAGTTGT,1.01 ± 0.016
5,AGATATAACT,1.021 ± 0.0066
6,AGATATGAAC,1.04 ± 0.044
7,AGATATTTTG,0.988 ± 0.039
8,AGATCAAGAG,0.974 ± 0.04
9,AGATCAGTGC,0.997 ± 0.011
10,AGATCATGCG,1.02 ± 0.045
11,AGATCGAGTA,0.989 ± 0.033
12,AGATCGGTTT,1 ± 0.042
13,AGATCTAAGG,1 ± 0.019
14,AGATCTTGCG,0.979 ± 0.019
15,AGATGAATTC,0.982 ± 0.036
16,AGATGAGCCG,1.05 ± 0.11
17,AGATGATATA,0.999 ± 0.013
18,AGATGCCTTC,1.01 ± 0.029
19,AGATGCTTTA,0.9908 ± 0.0027
20,AGATGGAGCT,0.9875 ± 0.0055
21,AGATGGAGGA,0.99 ± 0.033
22,AGATGGGGAG,1.04 ± 0.064
23,AGATGGGGGA,0.983 ± 0.026
24,AGATGGTTGC,0.958 ± 0.021
25,AGATGTGACG,0.9686 ± 0.0087

row,Sequence,switch fluorescence ratio
1,AGATGTTTGG,0.956 ± 0.027
2,AGATTAAACA,1.02 ± 0.032
3,AGATTAGGGG,1.04 ± 0.041
4,AGATTAGTTC,1.002 ± 0.0056
5,AGATTAGTTG,1.016 ± 0.0039
6,AGATTATAGG,1.01 ± 0.018
7,AGATTCGTAC,1.02 ± 0.021
8,AGATTGCATA,0.994 ± 0.015
9,AGATTGGAAT,0.9968 ± 0.0058
10,AGATTGGTTA,0.992 ± 0.021
11,AGATTGTGCA,0.963 ± 0.011
12,AGATTGTTAG,1.015 ± 0.0027
13,AGATTTATCC,0.977 ± 0.065
14,AGATTTGGTT,1.01 ± 0.032
15,AGATTTGTGG,0.9917 ± 0.0033
16,AGATTTTCCG,1.01 ± 0.023
17,AGATTTTGCG,0.991 ± 0.01
18,AGATTTTTAA,1.004 ± 0.0097
19,AGATTTTTGA,0.942 ± 0.069
20,AGATTTTTGT,0.972 ± 0.019
21,AGATTTTTTA,0.954 ± 0.016
22,AGCAAATAGT,1.28 ± 0.028
23,AGCAAGGGCA,1.0103 ± 6.2e-05
24,AGCAAGTCCT,1.12 ± 0.015
25,AGCAATAGTT,2.97 ± 0.051

row,Sequence,switch fluorescence ratio
1,AGCAATTGTG,1.04 ± 0.029
2,AGCACATTTG,0.97 ± 0.017
3,AGCACGGGAA,1.03 ± 0.03
4,AGCACGGTTA,1.04 ± 0.049
5,AGCACGTTAT,1.256 ± 0.012
6,AGCAGAGAAA,0.982 ± 0.046
7,AGCAGAGTTG,1 ± 0.018
8,AGCAGGAAGG,0.9956 ± 0.0041
9,AGCAGGGGTT,1 ± 0.053
10,AGCATAAGGC,1.02 ± 0.019
11,AGCATCACTT,1.04 ± 0.029
12,AGCATGAGTA,1.01 ± 0.014
13,AGCATGATGC,0.991 ± 0.037
14,AGCATGCCTG,1.02 ± 0.058
15,AGCATGGGGG,1.01 ± 0.023
16,AGCATGGTGG,1.02 ± 0.046
17,AGCATGTAGA,0.989 ± 0.046
18,AGCATTTTCC,1.135 ± 0.0063
19,AGCCAAAATA,1.04 ± 0.017
20,AGCCAGGGAG,1.028 ± 0.0056
21,AGCCAGTTCG,1 ± 0.012
22,AGCCATATAG,1.048 ± 0.0066
23,AGCCCCATAG,1.17 ± 0.042
24,AGCCGAATTT,0.997 ± 0.019
25,AGCCGCCCCG,1.1 ± 0.1

row,Sequence,switch fluorescence ratio
1,AGCCGCTCGT,0.99 ± 0.033
2,AGCCGGGGTA,0.995 ± 0.025
3,AGCCGTACTC,1.2 ± 0.23
4,AGCCGTCAAC,1.05 ± 0.041
5,AGCCGTCCCC,0.993 ± 0.02
6,AGCCGTTTGA,1.023 ± 0.0016
7,AGCCTACTTT,1 ± 0.038
8,AGCCTAGGAT,1.04 ± 0.0021
9,AGCCTCGTGG,0.992 ± 0.019
10,AGCCTGACTG,1.12 ± 0.033
11,AGCGAAGGGG,1.01 ± 0.047
12,AGCGACGGGA,1.1 ± 0.048
13,AGCGAGGGA,1.029 ± 0.0068
14,AGCGAGTTTT,1.01 ± 0.012
15,AGCGATGGCC,1.05 ± 0.028
16,AGCGCAAGAT,1.791 ± 0.013
17,AGCGCGGTAA,1 ± 0.013
18,AGCGCGTTGT,1.02 ± 0.044
19,AGCGGAGAGT,1 ± 0.029
20,AGCGGATGCA,0.985 ± 0.02
21,AGCGGCATCT,0.983 ± 0.0093
22,AGCGGGGGGA,1.01 ± 0.025
23,AGCGGGGTTT,0.987 ± 0.011
24,AGCGGGTGCC,1.02 ± 0.039
25,AGCGGGTTGG,1.029 ± 0.0082

row,Sequence,switch fluorescence ratio
1,AGCGGTCCGG,1 ± 0.058
2,AGCGTACTCG,1.11 ± 0.047
3,AGCGTAGGGG,0.94 ± 0.033
4,AGCGTATGGG,0.983 ± 0.035
5,AGCGTATTGG,0.998 ± 0.035
6,AGCGTCGCAG,0.9715 ± 0.0087
7,AGCGTGACTG,0.987 ± 0.019
8,AGCGTGAGGG,1.02 ± 0.018
9,AGCGTGGTGG,0.958 ± 0.033
10,AGCGTGTAGG,1 ± 0.15
11,AGCGTGTTTA,1.04 ± 0.036
12,AGCGTTCAGC,0.9849 ± 0.0026
13,AGCTAGTTAC,1.38 ± 0.014
14,AGCTATCCCG,0.991 ± 0.046
15,AGCTATGTGG,0.9812 ± 0.0064
16,AGCTCGCCAC,1.05 ± 0.046
17,AGCTCGGGGG,1 ± 0.034
18,AGCTGACATT,0.999 ± 0.034
19,AGCTGATTC,1.031 ± 0.0099
20,AGCTGGGGGT,1.02 ± 0.06
21,AGCTGGGGTG,1.03 ± 0.06
22,AGCTGTGTGG,1.01 ± 0.012
23,AGCTGTTTAG,1 ± 0.014
24,AGCTTAAGAC,1.36 ± 0.041
25,AGCTTGGGCA,1.02 ± 0.0095

row,Sequence,switch fluorescence ratio
1,AGCTTGTCAA,0.9774 ± 0.0067
2,AGCTTTGCTA,0.9582 ± 0.0072
3,AGCTTTGGTA,1.016 ± 0.0026
4,AGGAAACTCG,1.03 ± 0.052
5,AGGAAAGTTT,0.955 ± 0.028
6,AGGAAATGGG,1 ± 0.036
7,AGGAACATAG,1.15 ± 0.2
8,AGGAAGCAG,1.003 ± 0.0027
9,AGGAAGGG,1.0069 ± 0.00083
10,AGGAAGGGGC,0.96 ± 0.018
11,AGGAATAAAA,0.961 ± 0.1
12,AGGAATATCA,0.998 ± 0.041
13,AGGACAGTCG,0.929 ± 0.045
14,AGGACCGGGG,1.024 ± 0.0095
15,AGGACCGGGT,1.03 ± 0.021
16,AGGACCGTTA,1 ± 0.031
17,AGGACCGTTT,0.991 ± 0.016
18,AGGACGACGG,0.964 ± 0.021
19,AGGACGTAGC,1.09 ± 0.018
20,AGGACTAAGG,0.98 ± 0.026
21,AGGACTCCGT,0.98 ± 0.095
22,AGGACTGGCA,0.991 ± 0.038
23,AGGACTGGTG,1.01 ± 0.044
24,AGGACTTAGG,1.06 ± 0.056
25,AGGACTTTAA,1.0405 ± 0.0001
